The nanobody polyreactivity screen of Harvey et al. (2022)

Experiment: yeast display, Sf9 membrane polyspecificity reagent, FACS + sequencing; frameworks hold sequencing errors
Method in brief: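 Galactose induction of a Saccharomyces cerevisiae BJ5465 synthetic nanobody display library ran 36–48 hours. The cells were then stained for 1 hour at 4 °C with 10% biotinylated, detergent-solubilized Sf9 membrane reagent, pulled down on streptavidin microbeads and FACS-sorted into low and high (top ~1%) gates on expression and reagent-binding fluorescence. Labels for polyreactivity follow the gate of origin.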

Sequence | polyreactivity (PSR sort gate)
QVQLVESGGGLVQAGGSLRISCAASGFTIAYYAMGWYRQAPGKERQKVASISSGDSTHYADSVKGRFTISRDNAKNTVYLQMNSLKPEDTAVYYCNADTRTFYYAAKTGFTFLYGYWGQGTQVTVSS | high polyreactivity
QVQLVESGGGLVQAGGSLRISCAASGGIFIRNAMGWYRQAPGKERELFATISNAGSTYADSVKGRFTISRDNAKNTVYLQMNSLKPEDTAVYYCNRVDWTYPVSQGLQEYDYRGQGTQVTVSS | low polyreactivity
QVQLVESGGGLVQAGGSLRISCAASGHIFFYYTMGWYRPAPGKERELVAGITIGGSTNYADSVKGRFTISRDNAKNTVSLQMNSLKPEDTAVYYCNVVKYVYIYSYWEYYYWGQGTQVTVSS | low polyreactivity
QVQLVESGGGLVQAGGSLRISCAASGIIFALYAMGWYRQAPGKERELVAAISWSGDRTYYADSVKGRFTISRDNAKNTVYLQMNSLKPEDTAVYYCAADDYTADAVQRFYYWGQGTQVTVSS | low polyreactivity
QVQLVESGGGLVQAGGSLRISCAASGIIFDRYVMGWYRQAPGKERELVATITRSVNTDYADSVKGRFTISRDNAKNTVYLQMNSLKPEDTAVYYCAARKYYYFPVAYDYWGQGTQVTVSS | high polyreactivity
QVQLVESGGGLVQAGGSLRISCAASGIIFGEYAMGWYRQAPGKERELVAAISQSGGTYYADSVKGRFTISRDNAKNTVYLQMNSLKPEDTAVYYCNADYWAYISRVRYDYWGQGTQVTVSS | low polyreactivity
QVQLVESGGGLVQAGGSLRISCAASGITFEGYAMGWYRQAPGKESEFVAAITSTGTSTRYADSVKGRFTISRDNAKNTVYLQMNSLKPEDTAVYYCAAVARRLNTGKYYYWGQGTQVTVSS | high polyreactivity
QVQLVESGGGLVQAGGSLRISCAASGITFGRYTMGWYRQAPGKERELVAAITNGDITYYADSVKGRFTISRDNAKNTVYLQMNSLKPDDTAVYYCAADRYFWYDYWGQATQVTVSS | high polyreactivity
QVQLVESGGGLVQAGGSLRISCAASGITFNKNDMGWYRQAPGKERELVAAISGRGGSTYYADSVKGRVTISRDNAKNTVYLQMNSLKPEDTAVYYCAADNFKGDSYGTGNYDYWGQGTQVTVSS | high polyreactivity
QVQLVESGGGLVQAGGSLRISCAASGITFRYYTMGWYRQAPGKERELVAAINYRGGRTYYADSVKGRFTISRDNAKNTVYLQMNSLKPEDTAVYYCNTARVSRLGWSTTSDSWGQGTQVTVSS | high polyreactivity
QVQLVESGGGLVQAGGSLRISCAASGLIFAIYAMGWYRQAPGKERELVAAIRWSGASPYADSVKGRFTISRDNAKKTVYLQMNSLKPEDSAVYYCAADDLLDYDYWGQGTQVTVSA | low polyreactivity
QVQLVESGGGLVQAGGSLRISCAASGRICWNYALGWYRQAPGKEMELVASISYRGGSTYYADSVKGRVTISRDYAKNTVYLQMNSLKPEDTAVYYCAARSRQARRTDYGYWGQGTQVTVSS | high polyreactivity
QVQLVESGGGLVQAGGSLRISCAASGRIFATNAMGWYRQAPGKERELVATITRSAGRTYYADSVKGRFTISRDTAKNTVYLQMNSLKPEDNAVYYFAASYGDTEPGYREYDYWGQGTQVTVSS | low polyreactivity
QVQLVESGGGLVQAGGSLRISCAASGRIFGKNALGRYRQAPGKERDLVAAITGSGGSTYYADSVKGRFTISRDNAKNTVYLQMNSLKPEDTAVYYCATAYAVYHVEYGYWGQGTQVTVSS | low polyreactivity
QVQLVESGGGLVQAGGSLRISCAASGRIFHANAMGWYRQAPGKERELLAGISRNGGRTYYADSVKGRFTISRDNAKYTVYLQMNSLKPEDTAVYYCAADGLTGSKYRATGYYWGQGTQVTVSS | high polyreactivity
QVQLVESGGGLVQAGGSLRISCAASGRIFYFNGMGWYRQAPGKERELVAAITSGGSTYYADSVKGRFTISRDNAKNTVYLQMNSLKPEDTAVYYCAAQNAWWSNGRSYDYWGQGTQVTVSS | low polyreactivity

Sequence | polyreactivity (PSR sort gate)
QVQLVESGGGLVQAGGSLRISCAASGRIFYYNAIGWYRQAPGKERELVATITGSGGSSYYADSVKGRFTISRDNAKNTVYLQMKTLKPEDSAVYYCIASRWYYDFYNLDYWGQGTQVTVSS | low polyreactivity
QVQLVESGGGLVQAGGSLRISCAASGRTCNHYTMGWYRPAPGKERELVAAITSGGSTYYADSVKGRFTISRDNAKNTVYLQMNSLKPEDTAVYYCARVRPLYHYSRYDYWGQGTQVTVSS | high polyreactivity
QVQLVESGGGLVQAGGSLRISCAASGRTFDINAMGWYSPAPGKERELVAAISSRGGTTFYADSVKGRFTISRDNAKNTVYLKMNSLKPEDSAVYYCAAVTSYYYTEEDYWGQGTQVTVSS | low polyreactivity
QVQLVESGGGLVQAGGSLRISCAASGRTFDPYAMGWYRQAPGKERELVAAITSGGSTYYADTVKGRFTISRDNAKNTVYLQMNSLTPEDTAVYYCAKPYYRLEDYWGQGTQVTVSS | low polyreactivity
QVQLVESGGGLVQAGGSLRISCAASGRTFFGNAMGWYRQAPGKERELGASISTRGGSTYYADSVKGRFTISRDNAKNTVYLQINSLKPADTAVYDCAAPSQSRGYYYWGQGTQVNVSS | high polyreactivity
QVQLVESGGGLVQAGGSLRISCAASGRTFFHYAMGWYRQAPGKERELVAGITSGGRTKYADSVKGRFTISRDNAKKTVYLQKNSMKPEDTAVYVCAASYIVWLTRGSPRKLFDYWGQGSQVTVSS | high polyreactivity
QVQLVESGGGLVQAGGSLRISCAASGRTFGANAMGWYRQAPGKERELVASISRSGGTTYYADSVKGRFTISRDNAKNTVYLQMNSLKPEDTAVYYCAAQYVRYGHYYWGQGTQVTVSS | high polyreactivity
QVQLVESGGGLVQAGGSLRISCAASGRTFHYNVMGWYTQAPGKERELVAAITNTGGSTYYADSVKGRFTISRDNAKNTVYLQMNSLKPEDTAVYYCAAVIWGRRYGAYPYEYWGQGTQVTVSS | low polyreactivity
QVQLVESGGGLVQAGGSLRISCAASGRTFKRYAMGWYRQAPGKERELVAAITGTGAITYYADSVKGRFTISRDNAKNTVYLQMNSLKPEDTAVYYCNARYWYRYGGYKPVGGYYWGQGTQVTVSS | high polyreactivity
QVQLVESGGGLVQAGGSLRISCAASGRTFRYYGMGWYRQPPAKERVVAAITWSGDTTYYADSVKGRFTISRDNAKNTVYLQMNSLKPEDTAVYYFAAQSWHRYYYWGQGTQVTVSS | high polyreactivity
QVQLVESGGGLVQAGGSLRISCAASGRTFWKYVRGWYRQAPGKERELVAVISRPAGSTYYADSVKGRFTISRDNAKNTVYLQMNSLKPEDTAVYYCAKRPKNKPVLGDYDHWGQGTQVTVSS | low polyreactivity
QVQLVESGGGLVQAGGSLRISCAASGRTFYNNAMGWYRQAPGTERELVATIHNRGGTTYYADSVKGRFTISRYNAKNTVYLLMNSLKPEDTAVYYCAKSAQRYSYRYYYWGQGTQVTVSS | high polyreactivity
QVQLVESGGGLVQAGGSLRISCAASGRTLGGYTMGWYRQAPGKERELVAAITGSGSNTYYADSVKGRFTISRDNAKNTVYLQMNSLKPEDTAVYYCAAPYSYRTWYPYGYWGQGTQVTLSS | high polyreactivity
QVQLVESGGGLVQAGGSLRISCAASGSIFGGYSMGWYRQAPGKERELVAAIRYSGVSTYYADSVKGRFTISRDNAKYTVYFQMNSLKAEDTAVYYCNAVPFYYHYDYWGQGTQVTVSS | high polyreactivity
QVQLVESGGGLVQAGGSLRISCAASGSIFGYNTMGWYRQAPGKERELVAAIRGSDSSTYYADSVKGRFTISRDNAKNTVYLQMNSVIPEDTAVYYCAAKYYWGQGTQVTVSS | high polyreactivity
QVQLVESGGGLVQAGGSLRISCAASGSIFLKYAMGWYRQAPGKERELVAAITWTDDRTYYADSVKGRFTISRDNAKNTVYLQMNSLKPEDTAVYYCNTATSKSSYRHYDYWGQGTQVTVSS | high polyreactivity
